T1: RVFV nucleoprotein (N) (Rift Valley fever virus, UniProt D3K5I7 1-245)
T1 sequence: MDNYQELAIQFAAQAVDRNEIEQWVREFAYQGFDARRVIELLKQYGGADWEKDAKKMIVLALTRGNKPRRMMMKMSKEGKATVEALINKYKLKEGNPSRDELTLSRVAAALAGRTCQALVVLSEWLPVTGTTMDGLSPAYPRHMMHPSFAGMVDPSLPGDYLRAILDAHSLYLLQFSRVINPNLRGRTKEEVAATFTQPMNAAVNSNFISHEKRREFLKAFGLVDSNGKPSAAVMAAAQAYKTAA


The binders below were run against T1, RVFV nucleoprotein (N) (assay: fluorescence bead binding assay).
CAGAAAAAGTGCCGACCGAACGATGTGTAAGCGCTATGAGA (ssDNA) [RV-5] gave a Kd of 41 nM.
For CTCCAGCGTAAACTACTGAAGACTGTGCCGGAAAGATC (ssDNA) [RV-2 (RVF 2)], the Kd was 15.4 nM.
Work on AGATGTCCTGCGTCGAGACACTTCTGCATTACTACGTTGG (ssDNA) [RV-3 (RVF 3)] yielded a Kd of 18.6 nM.
